The supplement of paper PMC12764529
± gives the half width of the 95% confidence interval.

What was measured:
[1] = folding stability dG unfold from trypsin proteolysis; higher = more stable
Method in brief: (§1)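 How resistant each design was to proteolysis was captured as K50, inferred by Bayesian fitting of sequencing counts. Unfolding free energy was then derived relative to a sequence-predicted unfolded-state K50 and a shared folded-state K50, per protease or combined. Digestion used trypsin and chymotrypsin at 11 threefold-diluted concentrations plus a no-protease condition, on mini-proteins under 80 residues without cysteine in a PA-tagged cDNA display construct. Designs were kept only when AlphaFold2 dimer inter-PAE was above 15.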

[2] = folding stability dG unfold from chymotrypsin proteolysis; higher = more stable
Method in brief: as §1

[3] = folding stability dG unfold (combined trypsin and chymotrypsin); higher = more stable
Method in brief: as §1

Sequence | folding stability dG unfold [1] [kcal/mol] | folding stability dG unfold [2] [kcal/mol] | folding stability dG unfold [3] [kcal/mol]
SAGGSAGGSKKIKITVVVPKEEAEKLLKELEKAGYKIVSVEKKEIPENELVVIEIVIEKPEELSAGGSAGGS [r12_445_TrROS_Hall] | 3.09 ± 0.14 | 4.13 ± 0.24 | 3.65 ± 0.31
SAGGIEDIANEFGIEDVEIEEINPEYNEVTVTFRFRGPNGNPFTWTYTIEVPPPPPPEPKMDPEDNNNSAGG [r13_608_TrROS] | 1.06 ± 0.12 | 2.44 ± 0.16 | 1.81 ± 0.32
SAGGSPDEAVPLPVPAKITLPGGAEFTVEEAVVLPNGEVLVKATLISPYPDPREAPFVVPLELLDISSAGGS [r16_498_TrMRF] | -0.338 ± 0.054 | 0.395 ± 0.03 | 0.235 ± 0.066
SAGGSAGGSDDDDAKKAMEQMKPPPIPIKIQVKIEYDPSLGWLKVEIHFFGFGLRITGTIPIDSAGGSAGGS [r20_230_TrROS] | 3.33 ± 0.16 | 4.56 ± 0.31 | 4.08 ± 0.48
SAGGSAGGSAMEITITVPKENEEEVLEAAKKALEELGIEEVKVEKLEDGTYKVTARVKPGLSAGGSAGGSAG [r3_335_TrROS_Hall] | 0.325 ± 0.12 | 0.219 ± 0.14 | 0.361 ± 0.2
SAGGSAGGSAGNYMVRLEIEMPENGRKVEWMVPEDDPEEILEKFPWLKEHGMEVKIEVFPSAGGSAGGSAGG [r17_176_TrROS] | 0.236 ± 0.037 | 0.638 ± 0.08 | 0.498 ± 0.1
SAGGSAGGSAKLEYDDDYVEIEFKVPDGPIMIYIPDWGWMIWIWPGKEVTIRFPIPKPPDNSAGGSAGGSAG [r3_185_TrROS] | 2.41 ± 0.089 | 4.03 ± 0.24 | 3.43 ± 0.22
SAGGSAGGSAGGPNHYVMATETIEFEFEIRTRNEDGKPQEIKIKFTLTVIRMFPLPPGDPSAGGSAGGSAGG [r7_926_TrROS] | 3.36 ± 0.42 | 5.03 ± 0.26 | 4.73 ± 0.25
SAGGEVKVEIEVELNEDGTLRVRARVEVRVDGELVTVEVEIEVRLEPAPPPAPPPVLVVDPETGEILSAGGS [r8_269_TrROS_Hall] | 3.29 ± 0.2 | 1.94 ± 0.11 | 2.7 ± 0.21
SAGGSAGGSNKLVKELAKDPNIKSIFVDTKNKKVYILTDNYLIVIDKNGKIEKIEPISPEKLKSAGGSAGGS [r12_895_TrMRF] | 0.446 ± 0.098 | 1.26 ± 0.15 | 1.16 ± 0.17
SAGGSTIENPNGWRIEIDIIPIKVVYRKDPNGKPKEPVAPPVWIIHIKIEFPDKNGEKKEATFMLFSAGGSA [r2_218_TrROS] | 2.62 ± 0.069 | 4.61 ± 0.056 | 4.06 ± 0.13
SAGGSGSTTPETRTEPSPGGTTTEVRTDVHTLPDAETVEITVTRGGRTITLTASPAEAATLRVTPGASAGGS [r8_257_JUSTAS] | -0.555 ± 0.61 | -0.614 ± 0.62 | -0.436 ± 0.51
SAGGSAKEALVKAVEELFKKLFPDEPIEVLKVDPEKGRITIKVNSDEARKALEKALKELGIEVDLDSAGGSA [r15_196_TrMRF] | 3.75 ± 0.11 | 2.91 ± 0.092 | 3.34 ± 0.11
SAGGSAGGSAEVEIEFVSYDPSTGRLVRKRVKLKLLPDPKGGPVEVVEVEVDPGGPVPAGASAGGSAGGSAG [r3_397_TrMRF] | 1.91 ± 0.053 | 2.08 ± 0.046 | 2.11 ± 0.12
SAGGMFKGPDGNWKTYKTTKPGLTKSDIGPFVEELVEKFLKDHGLNPENVSAKAEYNPSTGTVNVYVGSAGG [r13_913_TrMRF] | 0.041 ± 0.039 | 0.783 ± 0.083 | 0.576 ± 0.08
SAGGSAGGSAGEEKETLTLVLPLEDMSPEEIAKLLEAAGYKVTVEEKDGLLVVKIERKPPSAGGSAGGSAGG [r11_707_TrROS_Hall] | 2.57 ± 0.08 | 2.855 ± 0.017 | 2.77 ± 0.065
SAGKVKLTIMIHPMRKNGKPRYYVMVKIEIPGGPKAEIMFPFDSPEQAKNLLEDLGLKVEPEDISIMRWSAG [r5_233_TrROS] | 1.89 ± 0.022 | 1.94 ± 0.12 | 1.94 ± 0.051
SAGGVRYRNPLTGVEIPPDATEEERAAIARAVAKPVVLPVTVPVYVEEGDVVVPVERTFHVPLGPDGSAGGS [r16_387_TrMRF] | 0.22 ± 0.085 | 0.0948 ± 0.12 | 0.206 ± 0.083
SAGGSAGGSAGSSLPVLETREEGDLVYLLFPETNLLLVVRRGPGEVEVPSAVRVPPDVPLSAGGSAGGSAGG [r17_30_JUSTAS] | 0.805 ± 0.022 | 1.03 ± 0.047 | 0.958 ± 0.063
SAGGSAGGSAGPPNQRHEYEIKLTIYDPDNGKKFTIKIPMESPWDMPNFMRKLADNGYIKSAGGSAGGSAGG [r11_668_TrROS] | 0.557 ± 0.14 | 1.38 ± 0.11 | 1.12 ± 0.11
SAGGSLPPSTVIESEIVIEIEIENNISGIPGKTEKAFIIIKVTVTTDENGNLSSSVEIEIIPAKDLSAGGSA [r2_448_TrMRF] | 3.22 ± 0.23 | 2.97 ± 0.21 | 3.26 ± 0.41
